# From US20080220446A1, “Method for Detecting and/or Removing Protein and/or Peptide Comprising a Cross-Beta Structure From an Aqueous Solution Comprising a Protein” (priority 2005, published 2008)
# B1: alkyl-β2gpi: reduced and alkylated β2-glycoprotein I (protein)
# chain: GRTCPKPDDLPFSTVVPLKTFYEPGEEITYSCKPGYVSRGGMRKFICPLTGLWPINTLKCTPRVCPFAGILENGAVRYTTFEYPNTISFSCNTGFYLNGADSAKCTEEGKWSPELPVCAPIICPPPSIPTFATLRVYKPSAGNNSLYRDTAVFECLPQHAMFGNDTITCTTHGNWTKLPECREVKCPFPSRPDNGFVNYPAKPTLYYKDKATFGCHDGYSLDGPEEIECTKLGNWSAMPSCKASCKVPVKKATVVYQGERVKIQEKFKNGMLHGDKVSFFCKNKEKKCSYTEDAQCIDGTIEVPKCFKEHSSLAFWKTDASDVKPC
# Tests used:
# [1] = ThT fluorescence enhancement by biopharmaceuticals; assay type: physicochemical; conditions: after alkylation of cysteine residues
# Procedure: Fluorescence of ThT—protein/peptide adducts was measured as follows. […] Fluorescence was measured at 485 nm upon excitation at 435 nm. Background signals from buffer, buffer with ThT and protein/peptide solution without ThT were subtracted from corresponding measurements with protein solution incubated with ThT. Regularly, fluorescence of Aβ was used as a positive control, and fluorescence of FP10, a non-amyloid fibrin fragment^16, was used as a negative control. Fluorescence was measured in triplicate on a Hitachi F-4500 fluorescence spectrophotometer (Ltd., Tokyo, Japan).
# β2-GPI was reduced and alkylated as follows. Sixhundredforty μl of β2-GPI stock was mixed with 640 μl of 8 M Urea (cooled solution) in 0.1 M Tris pH-8.2. […]
# (§1) Protein therapeutics were obtained from the local hospital pharmacy and analyzed within the expiry limits as stated by the manufacturers.
# Fluorescence of Thioflavin T (ThT; Sigma T-3516, St. Louis, Mo., USA) and Congo red (CR; Aldrich Chemical Company Inc., Milwaukee, Wis., USA) was measured on a Hitachi F-4500 spectrophotometer at an excitation wavelength of 435 nm and emission wavelength of 485 nm for ThT and an excitation wavelength of 550 nm and emission wavelength of 595 nm for Congo red. […] Fluorescence was measured in triplicate. Background fluorescence of both protein in buffer and dye-solution were subtracted from the total fluorescence signal. […]
# tPA = tPA (Homo sapiens, UniProt P00750); experiment: tPA/plasminogen activation assay; assay type: biochemical; conditions: β2gpi exposed to cardiolipin or alkylated, 100 μg/ml
# Sequence of tPA (P00750 36-562): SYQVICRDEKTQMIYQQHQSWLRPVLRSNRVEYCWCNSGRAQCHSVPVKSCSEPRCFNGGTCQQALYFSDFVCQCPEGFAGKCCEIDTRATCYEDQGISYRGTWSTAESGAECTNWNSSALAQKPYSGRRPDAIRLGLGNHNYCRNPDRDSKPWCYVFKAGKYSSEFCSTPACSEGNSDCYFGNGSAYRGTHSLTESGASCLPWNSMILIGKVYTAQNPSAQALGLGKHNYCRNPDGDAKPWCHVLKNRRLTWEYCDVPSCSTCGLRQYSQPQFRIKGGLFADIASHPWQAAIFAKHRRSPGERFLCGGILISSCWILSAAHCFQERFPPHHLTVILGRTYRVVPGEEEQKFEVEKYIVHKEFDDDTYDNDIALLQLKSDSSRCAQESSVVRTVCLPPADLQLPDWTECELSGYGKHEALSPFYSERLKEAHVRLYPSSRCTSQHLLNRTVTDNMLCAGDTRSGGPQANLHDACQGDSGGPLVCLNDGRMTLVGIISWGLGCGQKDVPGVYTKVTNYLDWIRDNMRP
# Procedure: β2-GPI was reduced and alkylated as follows. Sixhundredforty μl of β2-GPI stock was mixed with 640 μl of 8 M Urea (cooled solution) in 0.1 M Tris pH-8.2. The solution was degassed with N2 gas for approximately 6 minutes. From a 1 M DTT stock 12.8 μl was added to the solution, mixed and incubated for 3 hours at room temperature. A 1 M Iodoacetamide (Sigma; I-6125) was prepared, of which 25.6 μl was added to the β2-GPI reaction mixture. The solution was subsequently dialysed against PBS. […] Signals obtained with alkyl-β2gpi are compared with those obtained with native β2gpi starting material and with positive control acid/heat denatured amyloid-like misfolded γ-globulins.
# Exiqon Peptide Immobilizer plates were blocked for 1 hour with PBS, 1% Tween20 and rinsed twice with distilled water. The conversion of the chromogenic substrate S-2251 (Chromogenix, Italy) by plasmin was kinetically measured at 37° C. on a Spectramax340 microplate reader at a wavelength of 405 nm. […] Denatured γ-globulins (100 μg/ml) with amyloid-like structure was used as reference and positive control. Lyophilized γ-globulins (Sigma, Mo., USA) were dissolved in a 1(:)1 volume ratio of 1,1,1,3,3,3-hexafluoro-2-propanol and trifluoro-acetic acid and subsequently dried under air. […]
# as §1
molecule,measurement,setting,value
B1,Thioflavin T fluorescence,[1],enhanced Thioflavin T fluorescence
same,ability to activate tPA/plasminogen,tPA,amyloid-like properties
